# In the supplement of paper PMC10724198:
# ± gives the standard deviation of the averaged measurements.
# Tested on: Saccharomyces cerevisiae
# Assay: protein stability index of tFT-peptide fusion (C-terminal peptide) (PSI (0-1 scale)); higher = more stable (slower turnover)
# Conditions: genetic background: wild type; temperature: 30 C
# 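Note: PSI is a weighted mean of sequencing reads over stability bins, variants kept only with over 10 reads, mCherry proximal and sfGFP distal, peptide attached via GGGS linker.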
row,Sequence,protein stability index
1,NKDQKTKKNKRK,0.661 ± 0.075
2,EQDLSTKVKRST,0.65 ± 0.12
3,SLPVLSSRTSIQ,0.687 ± 0.012
4,NKHVMELPGEPG,0.647 ± 0.0079
5,TEKTHRTTIVNN,0.7254 ± 0.0061
6,GGGFVGGTVAAV,0.725 ± 0.011
7,RTGSCSCQRKPE,0.663 ± 0.017
8,AAFHSSSAFFFN,0.718 ± 0.019
9,KVGLGGRLQSYP,0.6338 ± 0.0054
10,CLSYSVCPFWEA,0.807 ± 0.0087
11,GGCGAKWLSGGG,0.64 ± 0.025
12,PVGDDDRTIPRL,0.661 ± 0.043
13,PPVLHSSEPPDS,0.707 ± 0.024
14,WLFRGELCGGAN,0.588 ± 0.014
15,TPHAPTATPRDN,0.727 ± 0.076
16,PVPKAPPCNRRR,0.663 ± 0.0099
17,APPQFPLTPPPP,0.647 ± 0.011
18,STIIKLCDCYKM,0.7 ± 0.11
19,LLSSFIFSILFF,0.496 ± 0.0085
20,ALPPPIPHPLFL,0.701 ± 0.019
21,KGKRGKKKEESN,0.6515 ± 0.0039
22,VCFLFGLVGFGS,0.597 ± 0.0085
23,KQKLEGTIIREL,0.674 ± 0.024
24,LPPPPPSRSRPV,0.712 ± 0.039
25,HLSNPRPPPPTR,0.703 ± 0.016
26,CGWGVMDAVGSR,0.685 ± 0.019

row,Sequence,protein stability index
1,YDRFVNGKSPGM,0.701 ± 0.06
2,QKCNPGKRVDRT,0.692 ± 0.0091
3,EDSKLVSRLSRS,0.712 ± 0.082
4,SPPRSSRTHAPP,0.7108 ± 0.006
5,AVSESSRRTQFF,0.7039 ± 0.0025
6,DGGAGWLGLLGG,0.713 ± 0.034
7,VGCLGGCGCGGV,0.716 ± 0.07
8,GALGGDSGKGGG,0.677 ± 0.15
9,WGGEVGQLLELW,0.714 ± 0.048
10,RNRVVPITARLT,0.545 ± 0.014
11,RLPPLFPPPPPC,0.709 ± 0.038
12,KQKIKKRIKKTI,0.6958 ± 0.0029
13,VRSSLDGDGLCG,0.6869 ± 0.0046
14,PPPPPPSLPPPS,0.714 ± 0.015
15,GGLSELGSGIKC,0.673 ± 0.0083
16,PLRPPSSPLWHT,0.6937 ± 0.0037
17,PAPPPPPPGTAA,0.641 ± 0.061
18,LFSPPPPPIPSP,0.73 ± 0.0078
19,ERINFSRRDFDC,0.805 ± 0.059
20,QYWIYTGLKSLS,0.598 ± 0.039
21,VMSGPSGARRIW,0.701 ± 0.055
22,FPYLLCPLFPWP,0.665 ± 0.015
23,VGASRFRLSNCF,0.677 ± 0.02
24,RAAQVFPHVLPR,0.6726 ± 0.0022
25,PFPFSLPSPPLP,0.551 ± 0.14
26,TSCFIWGCACCR,0.656 ± 0.058

row,Sequence,protein stability index
1,SFAPPLRCPPSS,0.709 ± 0.02
2,SFDPPYALLPPP,0.685 ± 0.02
3,NQRCLRGKIVRC,0.633 ± 0.03
4,SSPPPPPPPLPL,0.705 ± 0.023
5,AWGGGEWGGCGR,0.772 ± 0.027
6,AIPAVRFCRTLR,0.643 ± 0.055
7,NRRERQQREVYN,0.741 ± 0.21
8,LKRDLGGTSTRG,0.6615 ± 0.0057
9,DSIVHSFYIPLL,0.666 ± 0.048
10,IFKAIDQTYTDK,0.758 ± 0.15
11,TRREQYSSSNLV,0.674 ± 0.04
12,AEAKAVKSVSVR,0.638 ± 0.042
13,PRRFPCRLRLGF,0.702 ± 0.074
14,VPSPLPLPPLAP,0.722 ± 0.036
15,SSPAGSRLPFGS,0.75 ± 0.11
16,DLVLVSSQMPFA,0.683 ± 0.039
17,GLNCGVCFGGGV,0.701 ± 0.025
18,EERGGDNVTVCG,0.745 ± 0.031
19,PPSLPPHASPTP,0.762 ± 0.079
20,VSGFEGCYFSDL,0.712 ± 0.039
21,IPFPSSARLRAD,0.708 ± 0.02
22,LHLGRLVHGGVD,0.673 ± 0.017
23,PSPSPPPCPYPP,0.677 ± 0.054
24,MATLRVPTLSPD,0.5743 ± 0.004
25,VVWGGWGGWGCW,0.81 ± 0.17
26,VALEFLGWVGLS,0.684 ± 0.094

row,Sequence,protein stability index
1,GAPWPLAVVAGP,0.5995 ± 0.0013
2,RRTRRATKAKKR,0.682 ± 0.058
3,GGSGGLGEQGHR,0.76 ± 0.051
4,FGPLFSEDTRKV,0.703 ± 0.076
5,PINIERNKRIKR,0.733 ± 0.021
6,PPPPPLSPPSLV,0.725 ± 0.02
7,GFDVGKRGRFGL,0.635 ± 0.09
8,SLLSSPFPCLRQ,0.766 ± 0.087
9,PPNLLPRPPPRG,0.559 ± 0.047
10,IGGAPRIETIYP,0.704 ± 0.074
11,PLPRPRHHEPNS,0.75 ± 0.044
12,HPLPSSHLPPRP,0.75 ± 0.15
13,RIWEVQFRRLSE,0.823 ± 0.074
14,VCGGRLVGWGGW,0.729 ± 0.1
15,WAGQWCRGRAGG,0.728 ± 0.056
16,RLYPVPARPSPS,0.629 ± 0.046
17,YGPRNRNPPNAG,0.688 ± 0.099
18,PLPIPHASPTLA,0.641 ± 0.025
19,IKGKYYEAKNKI,0.714 ± 0.054
20,ARCSDPSAATHT,0.706 ± 0.038
21,QVKKKKQNDAKN,0.646 ± 0.074
22,SAGHHACRRYAG,0.683 ± 0.037
23,PSPYFPVPLLPS,0.701 ± 0.028
